The data set can be described thus: yeast display, Sf9 membrane polyspecificity reagent, FACS + sequencing; frameworks hold sequencing errors. The essentials:
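In a synthetic yeast display library (Saccharomyces cerevisiae BJ5465), nanobody expression was induced with galactose for 36–48 hours. FACS gates were set low and high (top ~1%) using anti-HA fluorescence for expression and streptavidin fluorescence for binding of the Sf9 membrane reagent. Each polyreactivity label is drawn from the gate of origin.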
For the sequence “QVQLVESGGGLVQAGGSIRLSCAASGRIFYAYTMGWYRQAPVKERELVAAIRRRGTTYYADSVKGRFTISRDNAKNTVYLQMNSLKPDDTAVYYCAKDALGYRTSSALLGDYWGQGTQVTVSS”, the “polyreactivity (PSR sort gate)” value is listed as “high polyreactivity”.
Then “QVQLVESGGGLVQAGGSLRLSCAASGSIFNDYGKAWYRQAPGKERDLVAAISASGGSTYYADSVKGRFTISRYNAKNPVYLQLNSLNPEDTAVYYCAAYYMGLYYLYVDALGYDYWGQGTQVTVSS”, with “low polyreactivity”; and “QVQLVESGGGLVQAGGSLRLSCAASGSIFDYYTMGCYRQAAGKERELVATIRSGDSTNYADSLKGRFTISRDIEMNRVYLQMNSLKPEDTAVYYCAAVDGAYPTLYDYWGQGTQVTVSS”, with “low polyreactivity”.
The same measure for “QVQLVESGGGLVQAGGSLRLSCAASGFTFRRYAMGWYRQAPGKERELVAAISLRSGRTNYADSVKGRFTISRDNAKNTVYLQMNSLKPEDTAVYYCAAGLYGKRAGTSYGYDYWGQGTQVTVSS”: “high polyreactivity”.
Take “QVQLQESGGGLVQAGGSLRLSCAASGTISDRAGMGWYRQAPAKNAIVANIDRGTNTNYADSVKGRFTISRDNAKNTVYLQMNSLKPEDTAVYNCAADGRYYIYLDYWGQGTQVTVSS”: the “polyreactivity (PSR sort gate)” value is on record as “low polyreactivity”.
The same measure for “QVQLVESGGGLVQAGGSLRLSCAASGRIFYGYTMGWYRQAPGKERELVAAITWSGVSTYADSVKGRFTISRDNAKNTVYLQMNSLKPEDTAVYYCNADPIYGKRWRYYYWGQGTQVTVSS”: “high polyreactivity”; for “QVQLVESGGGLVQAGGSLRLSCAASGSILYVYAMGWYRQAPGKERELVAVITSGGSTNYADSVKGRFTISRDNAKNTVYLQMNSLKPEDTAVYYCRFKYAVAHHFWVYRYDYWGQGTQVTVSS”: “low polyreactivity”.
The same measure for “HVQLVESGGGLVQAGGSLRLSCAASGRTFVNYTMGWYRQAPGKVRELVAAIRYRDGSTYYADSVKGRFTISRDNAKKTVYLQMNSLKPEDTAVYYCNNRITQVGDYIYDYWRQGTQVTVSS”: “low polyreactivity”.
As for “QVQLVESGGGLVQAGGSLRLSCAASGFIFQYYAMGWYRQAPGKERELVAAITSGGTTYYADSVKGRFTISRDNAKNTVYLQMNSLKPEDTAVYYCAAVFVNFYARFDYWGQGTQVTVSS”, the “polyreactivity (PSR sort gate)” value is on record as “low polyreactivity”.
Then “QVQLVESGGGLVQAGGSLRLSCAASGGTFYVYDMGWYRQTPGKEREFVADINFSTGITYYADSVKGRFTISRDNAKNTVYLQMNSLKPEDTAVYYCNADTAFYVYWYWIYDYWGQGTQVTVSS”, with “high polyreactivity”.
With “QVQLVESGGGLVQAGGSLRLSCAASGSIFVGNAMGWSRQAPGKERELVATISRGARRKYADSVKGRFTISRDNAKNTVYLQMNSLIPEDTAVYYCNKVTSYYVFYTPYYSWGQGTQVTVSS”, the “polyreactivity (PSR sort gate)” value was “low polyreactivity”.
Then “QVQLVESGGGLVQAGGSLRLSCAASGLYAMGWYRQAPGKERELVADINSSGGSITNYADSVKGRFTISRDNAKNTVYLQMNSLKPEDTAVYYCAAPALGNYFYGYDYWGQGTQVTVSS”, with “low polyreactivity”.
Consider “QVQLVESGGGLVQAGGSLRLSCAASGSIFGYYAMGWYRQAPGKERELVAAISGSGGSTYYADSVKGRFTISRDNAKNTVYLQMNSLKPEDTAVYYCAAAYHGRHYYWGQGTQVTVSS”, for which the “polyreactivity (PSR sort gate)” value is listed as “high polyreactivity”.
Take “QVQLVESGGGLVQAGGSLRLSCAASGRIFGLYSRGSYRQAPGKERELVAAISSRGGSTYYADSVKGRFTISRDNAKNTVYLQMNSLKPEDTAVYYCARETSYFGPSDYDYWGQGTQVTVSS”: the “polyreactivity (PSR sort gate)” value is “high polyreactivity”.
Then “QVQLVESGGGLVQAGGSLRISCAASGINFSVNAMGWYRQAPGKERELVAAITYSGGSTYYADSVKGRFTISRDNAKNTVYLQMNSLKPEDTAVYYCAAETYSSGEWYDYWGQGTQVTVSS”, with “high polyreactivity”; and “QVQLVESGGGLVQAGGSLRLSCAASGLTFRLNAMGWYRQAPGKERELVAAITRGGRTNYADSVKGRFTISRDNAKNTVYLQMNSLKPEDTAVYYCAARYVERHTDYYYWGQGTQVTVSS”, with “low polyreactivity”.
The same measure for “QVQLVESGGGLVQAGGSLPLSCAASGRTFRRYGMGWYSNAHGKERELVAGISGYGTTNYADSVKGRFTISRDNAKNTVYLQMNSLKPEDSAVYYCAAGRPYYYTYSGLYYWGQGTQVTVSS”: “high polyreactivity”.
On to “QVQLVESVGGLVQAGGSLRLTCAASVITQRFNSMGWYRQAPGKEMELVAAISSGTNTYYADSVKGRFAISRDNAKNTVYLQMNSLKPEDTAVYYCADTLGYYTSGRSYQRYDYWGHGTQVTVSS”, for which the “polyreactivity (PSR sort gate)” value is listed as “low polyreactivity”.
For “QVQLVESGGGLVQAGGSLRLSCAASGSTLKLNAMGWYRQAPGKERELVAAITRSGGSTYYADSVKGRFTISRDNAKNTVYLQMNSLKPEDTAVYYCAADVLWDEFGYWGQGTQVTVSS”, the “polyreactivity (PSR sort gate)” value was “low polyreactivity”.
As for “QVQLVESGGGLVQAGGSLRLSCAASGFISDWYAMGWYRQAPGTERELVATIDWIGGSTYADSVKGRFTISRDNAKNTVYLQMNSLKPEDTAVYYCAADSYFIAWYGAHYAYDYWGQGTQVTVSS”, the “polyreactivity (PSR sort gate)” value is recorded as “low polyreactivity”.
With “QVQLVESGGGLVQAGGSLRLSCAASGFTFRWYAMGWYRQAPGKERELVAAITYRGGRTYYADSVKGRFTISRDNAKNTVYLQMNSLKPEDTAVYYCAAKLSLNGRYDYWGQGTQVNVSS”, the “polyreactivity (PSR sort gate)” value is “high polyreactivity”.
The same measure for “QVQLVESGGGLVQAGGSLRLSCAASGIIFEPNAMGWYRQAPGKERELVAAIDSGGITYYADSVKGRFTISRDNAKNTVYLEMNSLKPEDTAVYYCAKRAYTRQYWYGYGYWGQGTQVTVSS”: “high polyreactivity”; for “QVQLVESGGGLVQAGGSLRLSCAASGSIFKRYARGWYRPAPGKERELVAAISWSGGNTYYADSVKGRFTISRDNSKNTVYLQMNSLKPEDTAVYYCAKRYRGGYYYPYNYWGQGTQVTVSS”: “high polyreactivity”.
Then “QVQLVESGGGLVQAGGSLRLSCAASGRTFRFYAMGWYRQAPGKERELVATIRSGASTYYADSVKGRFTISRDNAKNTVYLQMNSLKPEDTAVYYCAAGLYFPYVSVIVFRSYDYWGQGTQVTVSS”, with “high polyreactivity”; and “QVQLVESGGGLVQAGGSLRLICAASGSIFIRNAMGWYRQAPGKERELVAAITSRGGSTYYADSVKGRFTISRDNAKNTVFLQMNSLKPEDTAVYYCARRYYGLYDYWGQGTQVTVSS”, with “low polyreactivity”; and “QVQLVESGGGLVQAGGSLRLSCAASGSIFVNNAMGWYRQAPGKERELVAAISSRSSRTFYADSVKWRFTISRDNAKNTVYLQMNCLKPEDTAVYSCAVKKRAPDGDYWGQGTQVTVSS”, with “high polyreactivity”.
The same measure for “QVQLVESGGGLVQAGGSLRLSCAASGSTFRRNAMGWYRQAPGKERELVASITSGGSTYYADSVKGRFTISRDNAKNTVYLQMNSLKPEDTAVYYCAVVWRGGYRWPYEYWGQGTQVTVSS”: “low polyreactivity”.
Consider “QVQLVESVGGVVQAGGSLRLSCAASGFTFKYYDMGWYRQAPGKERELVAAISRRGGSTSYADSVKGRFTISRDNAKNTVYLQMNSLKPEDTAVYYCAADSSFERSSDYWGHGTQVTVSS”, for which the “polyreactivity (PSR sort gate)” value is “high polyreactivity”.
As to “QVQLVESGGGLVQAGGSLRLSCAASGRTFRYYAMGWYRQAPGKERELVATISSGGSTNYADSVKGRFTISRDNAKNTVYLQMNSLKPEDTAVYYCNARRSTDPARYYWGQGTQVTVSS”, the “polyreactivity (PSR sort gate)” value is “high polyreactivity”.
Then “QVQLVESAGGLVQAGGSLRLSCGASGRIYSLYAMGWYRQAPGKERELVAAISWGAGSTYYADSVKGRFTISRDNAKNTVYLQMNSLKREDTAVYYCATGRRYYYPYSSYLKYGYWGQGTQVTVSS”, with “high polyreactivity”.

For the origin of these results see the nanobody polyreactivity screen of Harvey et al. (2022).
